Experimental data from the supplement of paper PMC10724198.
± gives the standard deviation of the averaged measurements.

System: Saccharomyces cerevisiae
Experiment: protein stability index of tFT-peptide fusion (C-terminal peptide) (PSI (0-1 scale)); higher = more stable (slower turnover)
Conditions: genetic background: das1 deletion; temperature: 30 C
Method: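 MPS profiling in S. cerevisiae of the yeast C-terminome library: the last 12 aa of each annotated ORF are fused to the C-terminus of a sfGFP-mCherry timer, after a GGGS linker. Cells are FACS-sorted into 8 mCherry/sfGFP bins and deep-sequenced. PSI runs from 0 (unstable) to 1 (stable); wild type and das1Δ backgrounds, two technical replicates each.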

In order of rising protein stability index:
1. TEISRHFIVVFV [YHR182C-A C-terminal 12 aa]  0.306 ± 0.0088
2. TAYFICGMVIQL [YDL041W C-terminal 12 aa]  0.349 ± 0.014
3. SVFIAAVAAMLI [CCW14 C-terminal 12 aa]  0.603 ± 0.013
4. TLFDLIEKKVTA [TAL1 C-terminal 12 aa]  0.67 ± 0.0085
5. TSSTPLVIVDSK [HXT10 C-terminal 12 aa]  0.672 ± 0.013
6. TNGLINQFKEWM [PGI1 C-terminal 12 aa]  0.673 ± 0.015
7. TADIVYIDSELD [SPE1 C-terminal 12 aa]  0.6746 ± 0.0022
8. TEPESDTEVETS [WHI5 C-terminal 12 aa]  0.676 ± 0.01
9. SYEIVKNGHKNS [APC2 C-terminal 12 aa]  0.6772 ± 0.0007
10. TEPLYILRWLRS [YDR290W C-terminal 12 aa]  0.678 ± 0.008
11. STVLINVCKPTY [BAR1 C-terminal 12 aa]  0.681 ± 0.013
12. TCEKSKCNCEKC [CRS5 C-terminal 12 aa]  0.682 ± 0.012
13. TTEKKKKKCVLL [RHO1 C-terminal 12 aa]  0.684 ± 0.0099
14. TDGSKEDVDALP [ZNF1 C-terminal 12 aa]  0.688 ± 0.02
15. TKWHDKFGKLKN [SHE2 C-terminal 12 aa]  0.693 ± 0.024
16. TPVIDFSLKLAH [BNA6 C-terminal 12 aa]  0.693 ± 0.017
17. TLTQEEINELST [LTE1 C-terminal 12 aa]  0.69603 ± 0.00028
18. TATAPRLFDKLK [QCR6 C-terminal 12 aa]  0.7007 ± 0.007
19. TEKDSTTTNYRK [YJL218W C-terminal 12 aa]  0.702 ± 0.028
20. TTVDRTGNGAFW [YLR154C-H C-terminal 12 aa]  0.703 ± 0.017
21. SVSYASGYVTIG [MHO1 C-terminal 12 aa]  0.705 ± 0.034
22. TANKAGNKFQLS [LDO16 C-terminal 12 aa]  0.707 ± 0.0029
23. THKQYFWKKPAK [TOS4 C-terminal 12 aa]  0.707 ± 0.03
24. TPLGPKPDIRPP [GTO3 C-terminal 12 aa]  0.712 ± 0.013
25. TTIKNIDILNRT [SMC4 C-terminal 12 aa]  0.717 ± 0.024
26. TFVDDKLKELPQ [PTP3 C-terminal 12 aa]  0.719 ± 0.042
27. TIHTEVNIGIKQ [ENA1 C-terminal 12 aa]  0.7199 ± 0.0013
28. TVPEFPAPIFPN [YDL159C-B C-terminal 12 aa]  0.72 ± 0.019
29. TLKKIFSKRSIS [YCL049C C-terminal 12 aa]  0.722 ± 0.02
30. SVTAGYLPDLWR [YCH1 C-terminal 12 aa]  0.73 ± 0.0093
31. TCEACGNRWKFS [DST1 C-terminal 12 aa]  0.7329 ± 0.0019
32. TQQVVDDVLSRL [LYS12 C-terminal 12 aa]  0.738 ± 0.0082
33. TPLPGLSWPFNE [YIL014C-A C-terminal 12 aa]  0.74 ± 0.021
34. TFAKSSRNKSKL [PCS60 C-terminal 12 aa]  0.835 ± 0.011

Same assay, conditions: genetic background: wild type; temperature: 30 C

In order of rising protein stability index:
1. TEPLYILRWLRS [YDR290W C-terminal 12 aa]  0.313 ± 0.0053
2. TAYFICGMVIQL [YDL041W C-terminal 12 aa]  0.34 ± 0.011
3. TEISRHFIVVFV [YHR182C-A C-terminal 12 aa]  0.351 ± 0.028
4. TLKKIFSKRSIS [YCL049C C-terminal 12 aa]  0.4651 ± 0.0019
5. SVFIAAVAAMLI [CCW14 C-terminal 12 aa]  0.586 ± 0.016
6. SVSYASGYVTIG [MHO1 C-terminal 12 aa]  0.64 ± 0.011
7. TLFDLIEKKVTA [TAL1 C-terminal 12 aa]  0.652 ± 0.028
8. TFVDDKLKELPQ [PTP3 C-terminal 12 aa]  0.655 ± 0.0034
9. TATAPRLFDKLK [QCR6 C-terminal 12 aa]  0.662 ± 0.026
10. TEPESDTEVETS [WHI5 C-terminal 12 aa]  0.662 ± 0.013
11. STVLINVCKPTY [BAR1 C-terminal 12 aa]  0.667 ± 0.048
12. TANKAGNKFQLS [LDO16 C-terminal 12 aa]  0.675 ± 0.019
13. TKWHDKFGKLKN [SHE2 C-terminal 12 aa]  0.6795 ± 0.0042
14. SYEIVKNGHKNS [APC2 C-terminal 12 aa]  0.687 ± 0.018
15. THKQYFWKKPAK [TOS4 C-terminal 12 aa]  0.688 ± 0.058
16. TTEKKKKKCVLL [RHO1 C-terminal 12 aa]  0.6878 ± 0.0017
17. TLTQEEINELST [LTE1 C-terminal 12 aa]  0.689 ± 0.041
18. TVPEFPAPIFPN [YDL159C-B C-terminal 12 aa]  0.689 ± 0.0079
19. TCEKSKCNCEKC [CRS5 C-terminal 12 aa]  0.69 ± 0.082
20. TPLGPKPDIRPP [GTO3 C-terminal 12 aa]  0.693 ± 0.017
21. TADIVYIDSELD [SPE1 C-terminal 12 aa]  0.694 ± 0.083
22. TTIKNIDILNRT [SMC4 C-terminal 12 aa]  0.694 ± 0.048
23. TCEACGNRWKFS [DST1 C-terminal 12 aa]  0.697 ± 0.013
24. TEKDSTTTNYRK [YJL218W C-terminal 12 aa]  0.698 ± 0.034
25. TPVIDFSLKLAH [BNA6 C-terminal 12 aa]  0.7 ± 0.026
26. TSSTPLVIVDSK [HXT10 C-terminal 12 aa]  0.713 ± 0.064
27. TDGSKEDVDALP [ZNF1 C-terminal 12 aa]  0.716 ± 0.039
28. TTVDRTGNGAFW [YLR154C-H C-terminal 12 aa]  0.723 ± 0.036
29. SVTAGYLPDLWR [YCH1 C-terminal 12 aa]  0.728 ± 0.036
30. TQQVVDDVLSRL [LYS12 C-terminal 12 aa]  0.732 ± 0.038
31. TIHTEVNIGIKQ [ENA1 C-terminal 12 aa]  0.736 ± 0.027
32. TNGLINQFKEWM [PGI1 C-terminal 12 aa]  0.736 ± 0.082
33. TPLPGLSWPFNE [YIL014C-A C-terminal 12 aa]  0.74 ± 0.061
34. TFAKSSRNKSKL [PCS60 C-terminal 12 aa]  0.811 ± 0.073
